Results: patent US20200377587A1
Where a chain is given by its changes, count along the chain named. One block for each binder: values may come before it.

Legend:
IL-8 [1] = target: IL-8 (UniProt P10145); test: SPR, scFv, preliminary KD, lowest and highest value
IL-8 [2] = target: IL-8 (UniProt P10145); test: cell-based or functional assay
IL-8 [3] = target: IL-8 (UniProt P10145); test: SPR, immobilized IL-8, scFv, 25 C
IL-8 (72-mer) = IL-8 (72-mer) (UniProt P10145); test: binding kinetics, FIG. 1B
IL-8 (77-mer) = IL-8 (77-mer) (UniProt P10145); test: binding kinetics, FIG. 1B
IL-8 (77-mer), sequence (P10145 23-99 limits assumed): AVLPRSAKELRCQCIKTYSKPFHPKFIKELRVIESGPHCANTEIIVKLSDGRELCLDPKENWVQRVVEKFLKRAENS

IL-8, sequence (P10145 28-99 limits assumed): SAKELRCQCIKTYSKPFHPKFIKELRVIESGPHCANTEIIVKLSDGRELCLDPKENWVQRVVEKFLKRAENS
IL-8 (72-mer), sequence (P10145 28-99 limits assumed): as above

Kd (IL-8 [1]): 0.009 to 0.048 nM
reduction of transmigration of neutrophils (IL-8 mediated neutrophil chemotaxis, transwell, 1 nM IL-8, 1.5 and 3 hours) (IL-8 [2]): 30 to 70%
Kd (IL-8 [3]): 0.009 to 0.048 nM
Kd (IL-8 (72-mer)): 0.147 nM
Kd (IL-8 (77-mer)): 0.12 nM
B1: scFv 49-31 (scFv, part only; not given: linker and domain order, V domains shown, not shown: another chain or arm of the molecule; small tags and cut ends)
VH: EVQLVESGGGLVQPGGSLRLSCAASGFTFSSYYMHWVRQAPGKGLEWVSAISGGGSSTYYADSVKGRFTISRDNSKNTLYLQMNSLRAEDTAVYYCARDLRIFEGRDAGFDVWGQGTLVTVS
VL: DIQMTQSPSSLSASVGDRVTITCQASQDISNYLNWYQQKPGKAPKLLIYDASNLETGVPSRFSGSGSGTDFTFTISSLQPEDIATYYCQQDDDVPWTFGQGTKVEIK

Kd (IL-8 [3]): 2.66 nM
B2: scFv 49-1 (scFv, part only; not given: linker and domain order, V domains shown, not shown: another chain or arm of the molecule; small tags and cut ends)
VH: EVQLVESGGGLVQPGGSLRLSCAASGFTFSSYWMHWVRQAPGKGLEWVSAISWSGGSTSYADSVKGRFTISRDNSKNTLYLQMNSLRAEDTAVYYCARDLTWWVQAFDVWGQGTLVTVSS
VL: B1 VL with D91V, V94S, W96L
